# Measurements: WO2008074868A1 (dated 2008)
# Positions count from the first letter of the chain named.
# B1: 4B1 (VHH)
# VHH: EVQLVESGGGLVQPGGSLRLSCVAAGFTLDYYAIGWFRQAPGKEREGVSCITSDGRTYYADSVKGRFTISRDMAKKMVYLQMNSLKPEDTAVYYCAAGACMGGSGYEADFGSWGQGTQVTVSS
# notes: Tested as periplasmic extract; also called 4Bl
# B2: 4B10 (VHH)
# VHH: EVQLVESGGGLVQAGDSLRLSCAASGRTFSSYAMGWFRQAPGTERQFVARITGKGDSTDYADSVRGRFTISRDNAKNTVYLQMNSLKPEDTAVYYCAADAFNSLLQAGRAEYWGQGTQVTVSS
# notes: Tested as periplasmic extract; also called 4B1Θ
# B3: 4A6 (VHH)
# VHH: B1 VHH with V23A, A25S, G26P, I51S, D54H, R56K, Y59H, M73N, K76N, M77T
# notes: Tested as periplasmic extract; also called 4Aό
# B4: 4B8 (VHH)
# VHH: EVQLVESGGGLVQAGGSLRLSCAASGGTYSGNAMAWFRQAPGKEREFVAGIDWSSENTRYIDSVKGRFTISRDNAKNTMYLQMNSLKPEDTAVYYCAAGTSWGALASRLEAAYSSWGQGTQVTVSS
# notes: Tested as periplasmic extract
# B5: 4B5 (VHH)
# VHH: B4 VHH with G16D, G27R, G31R, N77S
# notes: Tested as periplasmic extract
# B6: 4B6 (VHH)
# VHH: B4 VHH with E1K, A14V, A23V, G27R, S30G, I61T, A111N, S115A
# notes: Tested as periplasmic extract
# B7: 4C3 (VHH)
# VHH: EVQLVESGGGLVQAGGSLRLSCAASGRTFSSYAMAWFRQAPGEEREFVATISVSGGYTYYADSVKGRFTISRDNAKNTVYLQMNTLKPEDTAVYYCAAGDSSSWLEHMYDYWGQGTQVTVSS
# notes: Tested as periplasmic extract
# B8: 4C4 (VHH)
# VHH: EVQLVESGGGLVQAGDSLRLSCAASGRPFMSYVMGWFRRAPGKEREFVGGINWGSGNTWYTDSVLGRFTISRDNAKNTVYLQMNSLKPEDTAVYYCATAAGVGYYRYERQYDYWGQGTQVTVSS
# notes: Tested as periplasmic extract
# B9: 4C5 (VHH)
# VHH: B8 VHH with M30S, S31A, G54N, G56A, R72K, T98A, A100G
# notes: Tested as periplasmic extract; also called 4CS
# B10: 4C8 (VHH)
# VHH: EVQLVESGGGLVQAGDSLRLSCAASGRTYTPYVMGWFRRAPGKEREFVGAVSWSGTNTWYTDSVKGRFTISRDNAKNTVYLQMNSLKPEDTAVYYCAAGDGVGIYRYEHQYDYWGQGTQVTVSS
# notes: Tested as periplasmic extract
# B11: 4C9 (VHH)
# VHH: EVQLVESGGGLVQAGDSLRLSCTASERPFSTYVMGWFRRAPGKEREFVGGITWSGINAWYTDSVLGRFTISSDNAKNTVYLQMNSLKPEDTAVYYCAAASGVGRYRYELQYDYWGQGTQVTVSS
# notes: Tested as periplasmic extract
# B12: 1D2 (VHH)
# VHH: EVQLVESGGGLVQPGGSLRLSCAASGFTLDYYAIGWFRRAPGKEREGVSCTSSSDGSTYYADSVKGRFTISRDNAKNTVYLQMNSLKPEDTAVYYCATTFGDACTVVAGIPDQYDFGSWGQGTQVTVSS
# B13: 1E7 (VHH)
# VHH: EVQLVESGGGLVQAGGSLRLSCAASGRTFSNYVMGWFRQAPGKEREFVAAISWSGVTTYHYSADSVKGRFTTSRDNDRNTAHLQMNSLKPEDTAVYYCAARGRTGSDPRKGDDYDYWGQGTQVTVSS
# B14: 4A9 (VHH)
# VHH: EVQLVESGGGLVQAGGSLRLSCEASGFTLDYSGVGWFRQAPGKERELVSCISRGGDRAGYANSVKGRFTMSRDNAKNILYLQMNSLKPEDTAVYYCAATHSGSGCYDGAIDYWGKGTLVTVSS
# B15: 1D7 (VHH)
# VHH: EVQLVESGGGLVQSGGSLRLSCAASGRAFNYYAMGWFRQAPGKERELVAVINWSGGTTSYADSVKGRFTISRSNAKNTVYLQMSSLKPEDTAVYYCAADSIYRTSKDYNYWGQGTQVTVSS
# B16: 4B7 (VHH)
# VHH: EVQLVESGGGLVQAGGSLRLSCAASGFTFDDYAIGWFRQAPGKEREGVSCISSRDGITYYADSVKGRFTISSDNAKNTVYLQMNSLKPEDTAVYYCAADLVGSFPCPVAAYDYWGQGTQVTVSS
# B17: 4D9 (VHH)
# VHH: B12 VHH with A33D, R39Q
# notes: Purified Nanobody
# Biological target: T1, human serum albumin (human, UniProt P02768 25-609)
# T1 construct: also called HSA
# Assay: SPR (Biacore T100) over immobilized human serum albumin, pH 7, pH 6 and pH 5
row,Binder,binding result
1,B1,binds
2,B2,binds

# Biological target: T1, human serum albumin
# Assay: SPR (Biacore T100), periplasmic extracts over immobilized human serum albumin
row,Binder,binding result
1,B3,binds
2,B4,binds
3,B5,binds
4,B6,binds
5,B7,binds
6,B8,binds
7,B9,binds
8,B10,binds
9,B11,binds

# Biological target: T2, human plgR overexpressed in MDCK cells (human, UniProt P01833 19-764)
# T2 construct: whole, on cells; also called hpIgR; human polymeric immunoglobulin receptor
# Assay: immunofluorescence on MDCK cells overexpressing human plgR, 3 uM Nanobody at 4C
# T2 sequence (P01833 19-764): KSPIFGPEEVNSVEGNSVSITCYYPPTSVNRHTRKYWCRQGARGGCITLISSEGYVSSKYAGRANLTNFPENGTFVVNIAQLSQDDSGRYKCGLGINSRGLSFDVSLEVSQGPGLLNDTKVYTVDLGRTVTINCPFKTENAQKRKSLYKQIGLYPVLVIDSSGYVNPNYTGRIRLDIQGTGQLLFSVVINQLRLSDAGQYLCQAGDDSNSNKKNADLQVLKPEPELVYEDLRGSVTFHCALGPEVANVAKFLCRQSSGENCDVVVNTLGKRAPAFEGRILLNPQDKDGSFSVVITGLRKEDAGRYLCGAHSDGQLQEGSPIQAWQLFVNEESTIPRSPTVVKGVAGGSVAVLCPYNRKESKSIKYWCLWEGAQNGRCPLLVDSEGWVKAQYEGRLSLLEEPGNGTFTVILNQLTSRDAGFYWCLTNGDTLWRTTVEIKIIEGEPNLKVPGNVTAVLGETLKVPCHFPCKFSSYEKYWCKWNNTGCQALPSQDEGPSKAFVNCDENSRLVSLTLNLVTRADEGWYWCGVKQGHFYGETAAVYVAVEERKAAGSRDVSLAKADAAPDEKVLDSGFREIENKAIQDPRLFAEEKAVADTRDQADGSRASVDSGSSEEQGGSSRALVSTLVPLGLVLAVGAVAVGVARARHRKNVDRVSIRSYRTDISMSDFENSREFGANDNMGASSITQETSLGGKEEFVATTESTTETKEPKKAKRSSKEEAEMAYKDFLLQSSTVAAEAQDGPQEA
row,Binder,binding result
1,B12,binds
2,B13,binds

# Biological target: T1, human serum albumin
# Assay: SPR (Biacore T100), periplasmic extracts over immobilized human serum albumin, pH 7 and pH 5
row,Binder,fold difference in off rate (pH 5 against pH 7) [fold]
1,B14,0.54

# Biological target: T2, human plgR overexpressed in MDCK cells
# Assay: immunoprecipitation from cell lysates with His-tagged Nanobody and talon beads, blot with a-hSC
row,Binder,binding result
1,B15,binds
2,B16,binds

# Biological target: T3, ectodomain of human plgR (R&D Systems Cat # 2717-PG) (human, UniProt P01833 19-638)
# T3 construct: extracellular domain; Immobilized at 5 ug/ml on Maxisorp plates; also called plgR ectodomain; pIgR
# Assay: competition ELISA, dilution series of purified Nanobody against IgA on immobilized plgR ectodomain
# T3 sequence (P01833 19-638): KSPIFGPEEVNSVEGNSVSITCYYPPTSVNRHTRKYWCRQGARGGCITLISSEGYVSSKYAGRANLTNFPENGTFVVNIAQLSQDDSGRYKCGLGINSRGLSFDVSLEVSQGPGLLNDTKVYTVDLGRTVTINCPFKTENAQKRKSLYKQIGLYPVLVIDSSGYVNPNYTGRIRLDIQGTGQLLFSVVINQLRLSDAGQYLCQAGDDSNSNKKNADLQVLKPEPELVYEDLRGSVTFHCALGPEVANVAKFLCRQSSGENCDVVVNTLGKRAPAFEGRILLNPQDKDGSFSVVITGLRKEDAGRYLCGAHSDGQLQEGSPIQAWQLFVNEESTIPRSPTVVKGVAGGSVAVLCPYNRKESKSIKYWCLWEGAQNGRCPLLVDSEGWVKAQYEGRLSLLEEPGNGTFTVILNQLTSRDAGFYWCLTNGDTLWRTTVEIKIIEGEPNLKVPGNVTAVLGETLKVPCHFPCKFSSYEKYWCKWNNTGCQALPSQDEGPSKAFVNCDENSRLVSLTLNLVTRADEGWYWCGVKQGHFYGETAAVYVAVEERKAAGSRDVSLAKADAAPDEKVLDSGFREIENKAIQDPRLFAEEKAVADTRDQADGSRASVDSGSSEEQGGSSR
row,Binder,binding result
1,B12,binds
2,B17,binds
3,B15,binds
4,B13,binds
